The target in experiment [1] is T1, full-length human SIRPαV2 (CAA71403.1) on cells (human, UniProt P78324 31-504).
T1 construct: one molecule for CHO-K1 and Expi-CHO transfectants (CAA71403.1) and for endogenous V2 on THP-1 cells and on CD14+ monocytes of V2/V2 donors; also called CHO-hSIRPαV2; αV2 WT
Kind of experiment: flow cytometry, competition with CD47 tetramer, CHO-K1 cells; * inhibition plateaus at <100%. The protocol:
Cells are washed, fixed, and analyzed by flow cytometry. Median fluorescent intensity is determined and used as a measure of CD47 binding.
For orientation: A flow cytometer gives signals particle by particle.

Experiment [2] deals with T2, cynomolgus SIRPα extracellular domain + His-tag (NP_001271679) (cynomolgus monkey).
T2 construct: also called CySIRPα NP_001271679; cynoSIRPα
T2 chain: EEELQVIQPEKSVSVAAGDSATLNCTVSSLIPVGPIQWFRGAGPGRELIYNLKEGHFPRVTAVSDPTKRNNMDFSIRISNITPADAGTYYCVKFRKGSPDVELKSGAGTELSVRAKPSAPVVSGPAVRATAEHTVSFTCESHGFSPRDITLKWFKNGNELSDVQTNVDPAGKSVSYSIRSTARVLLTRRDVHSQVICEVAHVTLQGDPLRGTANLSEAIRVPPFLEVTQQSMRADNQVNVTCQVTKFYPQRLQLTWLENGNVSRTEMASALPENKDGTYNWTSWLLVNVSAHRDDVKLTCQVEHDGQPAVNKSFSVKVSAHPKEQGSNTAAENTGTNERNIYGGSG
Kind of experiment: SPR, Ab captured, ECD-His analyte. In a few lines: (§1)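 In HBS-EP+ (1×), captured antibodies are exposed to a twofold concentration series of SIRP extracellular domain carrying a His tag, using 300 s contact at 30 μl/min and a 600 s dissociation window.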

Experiment [3] concerns the target T3, cynomolgus SIRPα extracellular domain + His-tag (EGM_02252) (cynomolgus monkey).
T3 construct: also called CySIRPα EGM_02252; cynoSIRPα
T3 chain: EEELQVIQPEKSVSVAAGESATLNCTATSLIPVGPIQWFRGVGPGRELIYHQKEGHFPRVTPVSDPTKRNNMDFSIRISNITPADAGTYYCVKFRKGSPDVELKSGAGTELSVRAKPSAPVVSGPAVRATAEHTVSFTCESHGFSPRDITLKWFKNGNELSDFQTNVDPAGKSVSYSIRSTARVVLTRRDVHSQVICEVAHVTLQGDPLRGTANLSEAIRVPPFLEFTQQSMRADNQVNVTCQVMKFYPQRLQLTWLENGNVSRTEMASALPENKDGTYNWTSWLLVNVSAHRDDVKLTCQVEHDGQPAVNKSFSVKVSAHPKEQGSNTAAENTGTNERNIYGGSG
Kind of experiment: SPR, Ab captured, ECD-His analyte. Put shortly:
as §1
For orientation: SPR reads the build-up and loss of mass on a sensor chip optically.

The target in experiment [4] is T4, cynomolgus SIRPβ1v3 extracellular domain + His-tag (XP_005568593) (cynomolgus monkey).
T4 construct: also called Cyno SIRPβ1v3; cynoSIRPβ1v3
T4 chain: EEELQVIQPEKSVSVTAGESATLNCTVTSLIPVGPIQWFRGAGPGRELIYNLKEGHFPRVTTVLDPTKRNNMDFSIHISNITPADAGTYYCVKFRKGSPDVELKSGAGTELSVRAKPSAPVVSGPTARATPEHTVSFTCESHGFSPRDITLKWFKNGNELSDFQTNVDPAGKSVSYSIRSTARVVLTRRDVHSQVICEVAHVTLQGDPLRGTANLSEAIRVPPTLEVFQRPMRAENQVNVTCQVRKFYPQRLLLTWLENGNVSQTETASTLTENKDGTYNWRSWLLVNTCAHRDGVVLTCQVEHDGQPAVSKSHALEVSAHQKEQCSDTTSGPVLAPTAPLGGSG
Put plainly: SPR, Ab captured, ECD-His analyte. In a few lines: as §1

As usually defined, the IC50 is the concentration that gives 50% inhibition. Low readings indicate greater potency in that assay, high ones weaker potency in that assay. One may read the Kd as the free concentration of one partner at which half of the binding sites on the other are occupied at equilibrium, for simple one-to-one binding.

B1: Antibody E (antibody, human IgG1, kappa, L234A L235A)
heavy: not shown
light: DIVMTQSPLSLPVTPGEPASISCKSSQSLLYSNGYNYLDWYLQRPGQSPQLLIYLGSNRASGVPDRFSGSGSGTDFTLKISRVEAEDVGVFYCMQALQTPLTFGGGTKVEIKRTVAAPSVFIFPPSDEQLKSGTASVVCLLNNFYPREAKVQWKVDNALQSGNSQESVTEQDSKDSTYSLSSTLTLSKADYEKHKVYACEVTHQGLSSPVTKSFNRGEC
Regarding B1, the IC50 in experiment [1] was 0.0007 µM.

B2: Antibody A (antibody, human IgG1, kappa, L234A L235A)
heavy: not shown
light: DIQMTQSPSSLSASVGDRVTITCRASQDINNYLAWFQQKPGKAPKSLIYTASSLHSGVPSKFSGSGSGTDFTLTISSLQPEDFATYYCQQYVSYPYTFGQGTKLEIKRTVAAPSVFIFPPSDEQLKSGTASVVCLLNNFYPREAKVQWKVDNALQSGNSQESVTEQDSKDSTYSLSSTLTLSKADYEKHKVYACEVTHQGLSSPVTKSFNRGEC
On to B2, for which the Kd in experiment [2] turned out to be 0.453 µM; in experiment [3] it was 0.201 µM; in experiment [4] it was 0.201 µM.

(Values after patent US20230012273A1 (Boehringer Ingelheim, published 2023).)
